Results reported in patent publication US20150079071.

Experiments:
[1] = test system: recombinant HSP90β (385903, Calbiochem/EMD Millipore)
[2] = molecular target: heat-shock protein 90β (HSP90β), endogenous, in conditioned medium of SCp2 cells (UniProt P11499)
Chain of heat-shock protein 90β (HSP90β), endogenous, in conditioned medium of SCp2 cells (P11499 2-724): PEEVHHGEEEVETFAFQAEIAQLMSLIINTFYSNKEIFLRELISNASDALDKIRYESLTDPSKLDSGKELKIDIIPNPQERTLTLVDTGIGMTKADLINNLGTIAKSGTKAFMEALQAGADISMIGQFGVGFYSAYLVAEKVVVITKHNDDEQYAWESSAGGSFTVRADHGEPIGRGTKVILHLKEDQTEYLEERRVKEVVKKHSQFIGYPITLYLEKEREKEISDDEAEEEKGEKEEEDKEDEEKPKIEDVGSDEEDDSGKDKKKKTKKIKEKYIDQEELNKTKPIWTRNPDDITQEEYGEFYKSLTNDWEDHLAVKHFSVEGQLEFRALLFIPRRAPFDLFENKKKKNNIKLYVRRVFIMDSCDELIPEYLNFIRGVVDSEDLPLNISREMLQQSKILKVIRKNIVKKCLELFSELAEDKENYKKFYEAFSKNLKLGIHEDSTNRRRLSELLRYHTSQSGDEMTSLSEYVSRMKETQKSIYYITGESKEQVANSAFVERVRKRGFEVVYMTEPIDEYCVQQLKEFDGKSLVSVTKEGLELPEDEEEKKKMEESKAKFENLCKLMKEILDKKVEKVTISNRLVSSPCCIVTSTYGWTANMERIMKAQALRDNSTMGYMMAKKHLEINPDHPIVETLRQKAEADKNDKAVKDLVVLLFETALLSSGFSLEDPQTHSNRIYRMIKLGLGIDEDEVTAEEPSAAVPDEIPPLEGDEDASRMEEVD

Chain of Flag-tagged full-length human MMP3 (FL) (chain, as listed by the source): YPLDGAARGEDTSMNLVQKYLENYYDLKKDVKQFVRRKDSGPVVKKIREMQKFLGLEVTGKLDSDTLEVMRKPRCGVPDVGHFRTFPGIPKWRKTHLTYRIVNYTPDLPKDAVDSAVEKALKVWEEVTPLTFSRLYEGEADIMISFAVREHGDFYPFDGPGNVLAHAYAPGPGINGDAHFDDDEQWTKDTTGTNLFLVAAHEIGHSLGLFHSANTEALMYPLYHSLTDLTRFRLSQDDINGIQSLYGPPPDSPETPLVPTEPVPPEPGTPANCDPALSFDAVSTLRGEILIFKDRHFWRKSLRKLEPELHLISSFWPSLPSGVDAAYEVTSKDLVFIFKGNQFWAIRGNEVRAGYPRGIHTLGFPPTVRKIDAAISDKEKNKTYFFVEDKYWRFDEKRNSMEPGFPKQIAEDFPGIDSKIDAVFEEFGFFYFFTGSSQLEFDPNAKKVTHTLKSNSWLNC

Flag-tagged full-length human MMP3 (FL)
invasion and branching (spatial network) of mammary organoids in 3D Col-1 gels with recombinant HSP90β [1]: The recombinant HSP90β added extracellularly enabled the secreted MMP3 to induce the most exuberant branched structures
invasion and branching (spatial network) of mammary organoids in 3D Col-1 gels with a function-blocking antibody against HSP90β [2]: blocking the extracellular HSP90β with inhibitory antibodies added to the medium abolished branching ability in all organoids, including controls
